# Measurements as given in patent publication US20190382493A1 (CYTOMX THERAPEUTICS, published 2019).
# Positions count from the first letter of the chain named.
# B1: mouse PD1-Fc (R&D Systems) (Fc fusion, UniProt Q02242 25-167, looked up)
# chain: LEVPNGPWRSLTFYPAWLTVSEGANATFTCSLSNWSEDLMLNWNRLSPSNQTEKQAAFCNGLSQPVQDARFQIIQLPNRHDFHMNILDTRRNDSGIYLCGAISLHPKAKIEESPGAELVVTERILETSTRYPSPSPKPEGRFQ
# notes: Bought reagent; also called mPD1; not shown: Fc part of the bought fusion protein; not described
# B2: anti-PDL1 antibody C5H9 (antibody, V domains shown)
# VH: EVQLLESGGGLVQPGGSLRLSCAASGFTFSSYAMSWVRQAPGKGLEWVSSIWRNGIVTVYADSVKGRFTISRDNSKNTLYLQMNSLRAEDTAVYYCAKWSAAFDYWGQGTLVTVSS
# VL: DIQMTQSPSSLSASVGDRVTITCRASQSISSYLNWYQQKPGKAPKLLIYYASTLQSGVPSRFSGSGSGTDFTLTISSLQPEDFATYYCQQDNGYPSTFGQGTKVEIKR
# notes: Fully human IgG; also called PDL1 C5H9
# B3: PDL1 h9 Fab-phage (Fab, V domains shown)
# VH: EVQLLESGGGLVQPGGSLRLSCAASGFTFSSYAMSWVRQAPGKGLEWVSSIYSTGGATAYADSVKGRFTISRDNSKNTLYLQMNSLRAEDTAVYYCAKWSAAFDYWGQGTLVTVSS
# VL: B2 VL
# notes: also called CDR3 clone H9
# B4: anti-PDL1 antibody C5B10 (antibody, V domains shown)
# VH: B2 VH with A102G, F103Y
# VL: B2 VL
# notes: Fully human IgG; also called PDL1 C5B10
# B5: anti-PDL1 antibody C5E10 (antibody, V domains shown)
# VH: B2 VH with A101K, A102G
# VL: B2 VL
# notes: Fully human IgG
# B6: anti-PDL1 antibody C5H9v2 (antibody, V domains shown)
# VH: B2 VH
# VL: B2 VL with Y50A, T53S, Q100G
# notes: IgG; also called anti-PDL1 parental antibody C5H9v2
# B7: anti-PDL1 antibody G12B10 (antibody, V domains shown)
# VH: B2 VH with R53Y, N54Q, I56L, A102G, F103Y
# VL: B2 VL
# notes: Fully human IgG; also called PDL1 G12B10
# B8: anti-PDL1 antibody G12E10 (antibody, V domains shown)
# VH: B2 VH with R53Y, N54Q, I56L, A101K, A102G
# VL: B2 VL
# notes: Fully human IgG; also called PDL1 G12E10
# B9: anti-PDL1 antibody G12H9 (antibody, V domains shown)
# VH: B2 VH with R53Y, N54Q, I56L
# VL: B2 VL
# notes: Fully human IgG; also called PDL1 G12H9
# B10: fully human anti-PDL1 c60 IgG (antibody, V domains shown)
# VH: B2 VH with W52Y, R53S, N54T, I56G, V57A, V59A, W99S, A102G
# VL: B2 VL
# notes: Fully human IgG with the variable domains of PDL1 c60; also called anti-PDL1 clone 60:IgG
# B11: PDL1 c60 ScFv-phage (scFv)
# scFv: EVQLLESGGGLVQPGGSLRLSCAASGFTFSSYAMSWVRQAPGKGLEWVSSIYSTGGATAYADSVKGRFTISRDNSKNTLYLQMNSLRAEDTAVYYCAKSSAGFDYWGQGTLVTVSSGGGGSGGGGSGGGGSTDIQMTQSPSSLSASVGDRVTITCRASQSISSYLNWYQQKPGKAPKLLIYYASTLQSGVPSRFSGSGSGTDFTLTISSLQPEDFATYYCQQDNGYPSTFGQGTKVEIKR
# notes: also called clone 60
# What was measured:
# mouse PDL1 (R&D Systems) [1] = molecular target: T1, mouse PDL1 (R&D Systems) (mouse, UniProt Q9EP73 19-238); experiment: phage ELISA on adsorbed mouse PDL1, PD1-Fc as competitor
# T1 construct: also called mPDL1; murine PDL1
# T1 sequence (Q9EP73 19-238 limits assumed): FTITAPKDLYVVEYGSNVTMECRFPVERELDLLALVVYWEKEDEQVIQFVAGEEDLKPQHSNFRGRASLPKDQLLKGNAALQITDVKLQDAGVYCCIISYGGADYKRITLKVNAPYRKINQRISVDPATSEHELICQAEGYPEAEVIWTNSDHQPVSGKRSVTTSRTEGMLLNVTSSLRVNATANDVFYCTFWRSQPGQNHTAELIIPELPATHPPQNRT
# Description: Bound phage were visualized with an anti-M13-HRP conjugate (GE Healthcare, Piscataway, N.Y.) and developed with the chromogenic substrate tetramethyl benzidine (TMB) (Thermo Scientific, Rockford, Ill.).
# [2] = molecular target: T2, human B7-1-Fc (R&D Systems) (human, UniProt P33681 35-242); experiment: ELISA, antigen adsorbed
# T2 construct: not shown: Fc part of the bought fusion protein; not described
# T2 sequence (looked up): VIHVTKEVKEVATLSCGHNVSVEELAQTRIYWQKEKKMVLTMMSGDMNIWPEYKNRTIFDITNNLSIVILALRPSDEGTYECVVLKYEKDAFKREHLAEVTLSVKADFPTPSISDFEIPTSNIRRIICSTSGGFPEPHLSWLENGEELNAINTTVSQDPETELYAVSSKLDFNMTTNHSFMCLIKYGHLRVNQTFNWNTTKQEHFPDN
# Procedure: (§1) Bound antibody was visualized with an anti-human IgG-HRP conjugate, Fab specific, (Sigma, St Louis, Mo.; Cat # A0293-1ML) and developed with the chromogenic substrate TMB.
# [3] = molecular target: T3, human CD28-Fc (R&D Systems) (human, UniProt P10747 19-152); experiment: ELISA, antigen adsorbed
# T3 construct: not shown: Fc part of the bought fusion protein; not described
# Procedure: as §1
# human B7H3 (R&D Systems) = molecular target: T4, human B7H3 (R&D Systems) (human, UniProt Q5ZPR3-2 29-245, limits assumed); experiment: ELISA, antigen adsorbed
# T4 sequence (looked up): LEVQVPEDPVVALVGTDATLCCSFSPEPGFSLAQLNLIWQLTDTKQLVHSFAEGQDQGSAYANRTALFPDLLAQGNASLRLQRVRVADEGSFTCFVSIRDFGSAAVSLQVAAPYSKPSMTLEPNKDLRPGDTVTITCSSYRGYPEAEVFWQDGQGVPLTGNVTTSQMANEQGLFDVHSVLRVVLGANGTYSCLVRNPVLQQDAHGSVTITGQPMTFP
# Procedure: as §1
# [4] = molecular target: T5, human PDL1-Fc (R & D Systems) (human, UniProt Q9NZQ7 19-239); experiment: ELISA, PDL1-Fc adsorbed, anti-human IgG (Fab specific)-HRP
# T5 construct: Bought reagent; not shown: Fc part of the bought fusion protein; not described
# T5 sequence (Q9NZQ7 19-239 limits assumed): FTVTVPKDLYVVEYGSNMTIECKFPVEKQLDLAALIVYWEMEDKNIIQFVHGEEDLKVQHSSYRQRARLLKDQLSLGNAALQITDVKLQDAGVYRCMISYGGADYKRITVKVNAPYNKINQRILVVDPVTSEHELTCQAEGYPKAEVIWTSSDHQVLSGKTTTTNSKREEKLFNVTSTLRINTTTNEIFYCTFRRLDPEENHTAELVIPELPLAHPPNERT
# Procedure: (§2) Bound antibody was visualized with an anti-human IgG-HRP conjugate, Fab specific, (Sigma, St Louis, Mo.; Cat # A0293-1ML) and developed with the chromogenic substrate TMB. […] Table 5 provides the SEQ ID NOs for the nucleic acid sequences and amino acids sequences of the respective variable heavy chains.
# as §1
# [5] = molecular target: T6, mouse PDL1-Fc (R & D Systems) (mouse, UniProt Q9EP73 19-238); experiment: as above
# T6 construct: Bought reagent; not shown: Fc part of the bought fusion protein; not described
# T6 sequence (Q9EP73 19-238 limits assumed): as the sequence (Q9EP73 19-238 limits assumed) above
# Procedure: as §2, §1
# [6] = molecular target: T2, human B7-1-Fc (R&D Systems); experiment: Fab-phage ELISA, antigen adsorbed
# Description: (§3) Forty seven (47) individual isolates were chosen from the final pool. […] Briefly, the antigens were adsorbed to the wells of a 96-well ELISA plate, each ligand on a separate plate. Phage were applied to correlative wells on each plate and allowed to bind. Bound phage were visualized with an anti-M13-HRP conjugate and developed with the chromogenic substrate TMB. Based on the results of the ELISA and DNA sequence, 6 unique clones with matured heavy variable CDR3 domains and 10 heavy variable CDR2 domains were chosen for further study. […] Table 4 lists the heavy variable domains encoded by the clones and SEQ ID NOs for the nucleic acid sequences and amino acid sequences of their respective heavy chains.
# [7] = molecular target: T5, human PDL1-Fc (R & D Systems); experiment: Fab-phage ELISA, antigen adsorbed
# Description: as §3
# [8] = molecular target: T5, human PDL1-Fc (R & D Systems); experiment: ELISA, PDL1 adsorbed
# Procedure: as §1
# [9] = molecular target: T6, mouse PDL1-Fc (R & D Systems); experiment: ELISA, PDL1 adsorbed
# Procedure: as §1
# [10] = molecular target: T7, cynomolgus monkey (cyno) PDL1-Fc (Sino biological) (cynomolgus monkey, UniProt G7PSE7 19-239); experiment: ELISA, PDL1 adsorbed
# T7 construct: Bought reagent; not shown: Fc part of the bought fusion protein; not described
# T7 sequence (G7PSE7 entry or part of it): as the sequence (Q9NZQ7 19-239 limits assumed) above, with A33T, A34S, S62N, R68Q, Q82R, F173L, T185A, T192I, H215L counted along it
# Procedure: as §1
# rat PDL1 = rat PDL1 (rat, UniProt D4AE25 19-239); experiment: ELISA, PDL1 adsorbed
# rat PDL1, sequence (D4AE25 entry or part of it limits assumed, form in doubt): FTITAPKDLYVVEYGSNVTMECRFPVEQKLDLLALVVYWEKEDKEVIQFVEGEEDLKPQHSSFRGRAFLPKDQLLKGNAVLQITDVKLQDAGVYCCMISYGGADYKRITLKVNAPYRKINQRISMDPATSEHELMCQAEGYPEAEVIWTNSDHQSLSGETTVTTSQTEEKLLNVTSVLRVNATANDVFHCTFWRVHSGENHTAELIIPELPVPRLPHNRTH
# Procedure: as §1
# [11] = molecular target: T5, human PDL1-Fc (R & D Systems); experiment: ELISA saturation binding (figure legend)
# Procedure: as §1
# [12] = molecular target: T5, human PDL1-Fc (R & D Systems); experiment: ELISA saturation binding, PDL1-Fc adsorbed
# Procedure: as §1
# [13] = molecular target: T6, mouse PDL1-Fc (R & D Systems); experiment: ELISA saturation binding, PDL1-Fc adsorbed
# Procedure: as §1
# human PDL1 (R&D Systems) = molecular target: T8, human PDL1 (R&D Systems) (human, UniProt Q9NZQ7 19-239); experiment: phage ELISA, antigen adsorbed, anti-M13-HRP
# T8 construct: also called hPDL1; recombinant human PDL1 protein
# T8 sequence (Q9NZQ7 19-239 limits assumed): as the sequence (Q9NZQ7 19-239 limits assumed) above
# Description: (§4) Phage were applied to the plate and allowed to bind. Bound phage were visualized with an anti-M13-HRP conjugate (GE Healthcare, Piscataway, N.Y.) and developed with the chromogenic substrate tetramethyl benzidine (TMB) (Thermo Scientific, Rockford, Ill.).
# mouse PDL1 (R&D Systems) [14] = molecular target: T1, mouse PDL1 (R&D Systems); experiment: phage ELISA, antigen adsorbed, anti-M13-HRP
# Description: as §4
binder,measurement,setting,value
B1,binding result,mouse PDL1 (R&D Systems) [1],binds
B2,binding result,[2],no binding
same,binding result,[3],no binding
same,binding result,human B7H3 (R&D Systems),no binding
same,binding result,[4],binds
same,binding result,[5],binds
B3,binding result,[6],no binding
same,binding result,[7],binds
B4,binding result,[2],no binding
same,binding result,[3],no binding
same,binding result,[4],binds
B5,binding result,[2],no binding
same,binding result,[3],no binding
same,binding result,[4],binds
B6,EC50,[8],0.25 nM
same,EC50,[9],0.3 nM
same,EC50,[10],0.28 nM
same,EC50,rat PDL1,0.31 nM
B7,binding result,[4],binds
B8,binding result,[4],binds
B9,binding result,[4],binds
B10,Kd,[11],~1 nM
same,Kd,[12],1 nM
same,Kd,[13],30 nM
B11,binding result,human PDL1 (R&D Systems),binds
same,binding result,mouse PDL1 (R&D Systems) [14],binds
